Molecular target: cruzain (Trypanosoma cruzi, UniProt P25779)
Type: biochemical
Conditions: read-out: IC50 (μM) cruzain; triplicate; phosphate buffer pH 6.3, 37 °C

Sequence of cruzain (P25779 123-467): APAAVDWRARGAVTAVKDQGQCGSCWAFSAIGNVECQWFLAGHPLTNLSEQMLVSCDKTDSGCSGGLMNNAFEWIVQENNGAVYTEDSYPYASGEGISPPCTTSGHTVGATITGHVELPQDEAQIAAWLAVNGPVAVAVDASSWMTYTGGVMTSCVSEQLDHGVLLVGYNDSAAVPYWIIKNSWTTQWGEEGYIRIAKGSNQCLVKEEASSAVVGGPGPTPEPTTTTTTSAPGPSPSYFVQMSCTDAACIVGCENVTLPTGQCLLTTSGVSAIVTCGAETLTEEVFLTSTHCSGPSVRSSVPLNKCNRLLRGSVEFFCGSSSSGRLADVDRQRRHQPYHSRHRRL

B1: cystatin (protein)
chain: SEDRSRLLGAPVPVDENDEGLQRALQFAMAEYNRASNDKYSSRVVRVISAKRQLVSGIKYILQVEIGRTTCPKSSGDLQSCEFHDEPEMAKYTTCTFVVYSIPWLNQIKLLESKCQ
modifications: two disulfides; Limits are the mature chain
B1 showed an IC50 of 0.0085 ± 0.025 µM.
